± gives the uncertainty stated by the source.
Test: self-splicing fitness, log relative to wild type (ln ratio); higher = more splicing; Tetrahymena group I intron in knt gene, E. coli kanamycin selection, DiMSum; sequences stand for … in CUCUCU…GGAGGGAAAAGUUAUCAGGCAUGCACCUGGUAGCUAGUCUUUAAACCAAUAGAUUGCAUCGGUUUAAAAGGCAAGACCGUCAAAUUGCGGGAAAGGGGUCAACAGCCGUUCAGUACCAAGUCUCAGGGGAAACUUUGAGAUGGCCUUGCAAAGGGUAUGGUAAUAAGCUGACGGACAUGGUCCUAACCACGCAGCCAAGUCCUAAGUCAACAGAUCUUCUGUUGAUAUGGAUGCAGUUCACAGACUAAAUGUCGGUCGGGGAAGAUGUAUUCUUCUCAUAAGAUAUAGUCGGACCUCUCCUUAAUGGGAGCUAGCGGAUGAAGUGAUGCAACACUGGAGCCGCUGGGAACUAAUUUGUAUGCGAAAGUAUAUUGAUUAGUUUUGGAGUACUCGUGGUCG
In short: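 A randomised library covering all eight P1ex-region intron nucleotides was built with the intron in the knt kanamycin-resistance gene on pET-22b(+) and held in E. coli BL21(DE3). Cells were grown overnight at 37°C or 30°C on LB agar, with or without 25 μg/mL kanamycin, plus 100 μg/mL carbenicillin, 50 μM IPTG and 0.2% rhamnose, and pooled colonies were amplicon-sequenced on an Illumina HiSeq 2500. DiMSum fitness is the error-weighted combination of wild-type-normalised replicate fold changes, kanamycin versus none.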

Sequence | self-splicing fitness (ln) (30 °C) | self-splicing fitness (ln) (37 °C)
CCUGAGCAAUAUUACGACAG | -1.3 ± 0.14 | -0.663 ± 0.15
CCCUAGCAAUAUUACGAUUG | -3.45 ± 0.21 | -2.38 ± 0.21
GCAAAGCAAUAUUACGUGGC | -3.38 ± 0.31 | -2.57 ± 0.24
CUCAAGCAAUAUUACGGGCC | -4.15 ± 0.35 | -2.78 ± 0.36
GUAUAGCAAUAUUACGUAUA | -3.48 ± 0.41 | -1.8 ± 0.25
AAAGAGCAAUAUUACGUGGA | -3.36 ± 0.32 | -2.67 ± 0.26
AUUCAGCAAUAUUACGCUGU | -2.87 ± 0.21 | -1.09 ± 0.18
ACCAAGCAAUAUUACGCAUU | -2.81 ± 0.085 | -1.26 ± 0.077
GAUUAGCAAUAUUACGUCCC | -0.907 ± 0.17 | -0.221 ± 0.17
UGUGAGCAAUAUUACGCGUG | -1.92 ± 0.11 | -1.75 ± 0.11
ACAUAGCAAUAUUACGUGUC | -4.9 ± 0.41 | -2.72 ± 0.28
GUAUAGCAAUAUUACGACGA | -1.78 ± 0.24 | -0.483 ± 0.19
GCAAAGCAAUAUUACGGCUA | -0.821 ± 0.07 | -0.279 ± 0.073
AAUCAGCAAUAUUACGCGUG | -0.227 ± 0.074 | 0.204 ± 0.085
GGUCAGCAAUAUUACGCCAA | -1.17 ± 0.25 | -2.06 ± 0.22
CUGCAGCAAUAUUACGUCUA | -1.64 ± 0.12 | -0.709 ± 0.15
CGAAAGCAAUAUUACGUUAG | -0.97 ± 0.068 | -0.895 ± 0.082
AGGUAGCAAUAUUACGGAGG | -4.103 ± 0.034 | -3.11 ± 0.043
AUCCAGCAAUAUUACGGUUA | -0.475 ± 0.05 | 0.0679 ± 0.054
UAACAGCAAUAUUACGUCUC | -3.01 ± 0.12 | -3.02 ± 0.2
UCGAAGCAAUAUUACGGCCG | -0.31 ± 0.18 | 0.0326 ± 0.34
AUCGAGCAAUAUUACGUGAU | – | -1.87 ± 0.43
CUGGAGCAAUAUUACGUAUA | -3.12 ± 0.36 | -2.48 ± 0.3
GCAUAGCAAUAUUACGACUA | -0.161 ± 0.23 | 0.00165 ± 0.2
CCAGAGCAAUAUUACGUUAU | -3.68 ± 0.24 | -2.2 ± 0.2
AGACAGCAAUAUUACGCCUG | -1.88 ± 0.12 | 0.171 ± 0.11

Sequence | self-splicing fitness (ln) (30 °C) | self-splicing fitness (ln) (37 °C)
AUUGAGCAAUAUUACGGACG | -2.11 ± 0.3 | -1.96 ± 0.32
CGAGAGCAAUAUUACGAAGA | -3.49 ± 0.36 | –
UCGCAGCAAUAUUACGAGGU | -3.14 ± 0.25 | -2.85 ± 0.19
GGGGAGCAAUAUUACGGCUC | – | -0.173 ± 0.34
UCUUAGCAAUAUUACGAUAG | -1.77 ± 0.17 | -1.63 ± 0.16
UCAAAGCAAUAUUACGGCCC | -3.79 ± 0.47 | -2.18 ± 0.46
AAACAGCAAUAUUACGGGAA | -2.41 ± 0.17 | -1.24 ± 0.12
AUGAAGCAAUAUUACGGUGA | -0.607 ± 0.069 | 0.195 ± 0.096
GGCUAGCAAUAUUACGCUUU | -0.428 ± 0.083 | 0.202 ± 0.099
CGGCAGCAAUAUUACGAACU | -1.15 ± 0.44 | -0.121 ± 0.34
UGGAAGCAAUAUUACGUCGG | -0.128 ± 0.11 | -0.162 ± 0.11
AGACAGCAAUAUUACGUCGA | -1.01 ± 0.089 | -1.07 ± 0.12
GGACAGCAAUAUUACGUCAA | -0.0403 ± 0.063 | 0.0855 ± 0.085
AUACAGCAAUAUUACGGCUG | -1.95 ± 0.13 | -2.6 ± 0.23
AUAGAGCAAUAUUACGGGAU | -1.54 ± 0.11 | -1.87 ± 0.2
GGCUAGCAAUAUUACGUAGU | -3.29 ± 0.17 | -2.04 ± 0.2
GCAAAGCAAUAUUACGUGCC | -4.02 ± 0.25 | -1.63 ± 0.2
CAGAAGCAAUAUUACGGUGU | -3.05 ± 0.12 | -2.22 ± 0.14
GAUCAGCAAUAUUACGUAAG | -1.58 ± 0.097 | -1.13 ± 0.12
AUUUAGCAAUAUUACGAAUA | -2.16 ± 0.33 | -0.575 ± 0.27
GCAAAGCAAUAUUACGUAAU | -1.23 ± 0.061 | -0.867 ± 0.084
GUUGAGCAAUAUUACGCGUU | -4.25 ± 0.46 | -2.15 ± 0.28
AAUCAGCAAUAUUACGGGUC | -2.03 ± 0.086 | -1.76 ± 0.11
AACAAGCAAUAUUACGGAGA | -3.58 ± 0.23 | -3.19 ± 0.24
ACCCAGCAAUAUUACGAAUA | -2.29 ± 0.14 | -1.19 ± 0.12
AUGGAGCAAUAUUACGCAAA | -2.21 ± 0.36 | –

Sequence | self-splicing fitness (ln) (30 °C) | self-splicing fitness (ln) (37 °C)
GAUGAGCAAUAUUACGAGUU | -2.18 ± 0.22 | -1.47 ± 0.24
UCUUAGCAAUAUUACGUCAC | – | -1.9 ± 0.33
CAGGAGCAAUAUUACGGGUG | -1.64 ± 0.082 | -0.707 ± 0.08
AUUCAGCAAUAUUACGCACG | -0.783 ± 0.16 | -0.413 ± 0.16
GGCCAGCAAUAUUACGUAAG | -1.3 ± 0.084 | -1.25 ± 0.15
CCUAAGCAAUAUUACGGUCU | -3.89 ± 0.31 | -2.94 ± 0.34
CCUAAGCAAUAUUACGCAUG | -3.6 ± 0.33 | -1.51 ± 0.23
GUACAGCAAUAUUACGCUCU | -0.911 ± 0.091 | -0.379 ± 0.11
UAUUAGCAAUAUUACGGGUC | -2.14 ± 0.37 | -2.29 ± 0.35
AGGCAGCAAUAUUACGGCCU | -3.36 ± 0.18 | -2.37 ± 0.24
GUAUAGCAAUAUUACGCUUA | -2.39 ± 0.17 | -1.23 ± 0.2
GAAAAGCAAUAUUACGUCUG | -0.835 ± 0.068 | -0.219 ± 0.084
CCCUAGCAAUAUUACGCCCA | -3.12 ± 0.25 | -3.76 ± 0.42
UUUUAGCAAUAUUACGACAG | -0.158 ± 0.23 | 0.172 ± 0.27
CAUUAGCAAUAUUACGUGUA | -2.78 ± 0.18 | -1.57 ± 0.11
AAAAAGCAAUAUUACGGGAC | -1.94 ± 0.098 | -0.477 ± 0.11
GGCCAGCAAUAUUACGUCGC | -1.17 ± 0.11 | -0.0357 ± 0.11
GCGUAGCAAUAUUACGCGCA | – | -1.07 ± 0.35
GGGUAGCAAUAUUACGUGCC | -0.954 ± 0.48 | –
AUCUAGCAAUAUUACGCAUA | -2.4 ± 0.18 | -1.69 ± 0.15
GGCCAGCAAUAUUACGGUGU | -0.779 ± 0.058 | -0.114 ± 0.07
UGUCAGCAAUAUUACGUUCC | -1.82 ± 0.19 | -0.73 ± 0.25
UGUCAGCAAUAUUACGGCUA | 0.131 ± 0.094 | 0.327 ± 0.12
UCUGAGCAAUAUUACGGGUC | -4.32 ± 0.39 | -2.38 ± 0.3
UGCGAGCAAUAUUACGUGGG | -4.32 ± 0.43 | -2.69 ± 0.23
CAGCAGCAAUAUUACGCAAA | -3.14 ± 0.34 | -1.77 ± 0.23

— the supplement of paper PMC7877785
